From publication PMC6224091 (2018) come the findings set out here.

The labels stand for the following.
B1: V5-Par6A (wild type) [not stated] / HA-Cdc42(G12V) [not stated] (parent complex)
chain 1: MARPQRTPARSPDSIVEVKSKFDAEFRRFALPRASVSGFQEFSRLLRAVHQIPGLDVLLGYTDAHGDLLPLTNDDSLHRALASGPPPLRLLVQKRAEADSSGLAFASNSLQRRKKGLLLRPVAPLRTRPPLLISLPQDFRQVSSVIDVDLLPETHRRVRLHKHGSDRPLGFYIRDGMSVRVAPQGLERVPGIFISRLVRGGLAESTGLLAVSDEILEVNGIEVAGKTLDQVTDMMVANSHNLIVTVKPANQRNNVVRGASGRLTGPPSAGPGPAEPDSDDDSSDLVIENRQPPSSNGLSQGPPCWDLHPGCRHPGTRSSLPSLDDQEQASSGWGSRIRGDGSGFSL
chain 2: not shown

The variants in this assay derive from B1. The assay can be described thus: co-immunoprecipitation (IP: GFP), quantified blot; HEK293T cells; HA-Cdc42(G12V) recovered in the GFP (YFP-Tuba) IP when co-expressed with the Par6A variant; n = 4; parent: 1; read off a plot.
Take chain 1 I133A, chain 1 S134A: the ratio to parent is approximately 0.21.
